Results reported in the supplement of paper PMC9732359.
± gives the uncertainty stated by the source.

Assay: protein stability index of a GFP-peptide fusion (yeast GPS) (PSI 1-4); higher = more stable; sorted into four equal gates, so the index is relative within each strain
Settings: pdr5∆
In short: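 The protein stability index of a peptide was calculated by multiplying its read frequency in each gate by that gate's number and adding the products. The peptides were tiled 17-residue stretches of yeast proteins, fused downstream of GFP on a Cherry-expressing plasmid and carried in yeast as a pooled library. Mid-log cultures in leucine-free medium were sorted into four equal gates by GFP/Cherry ratio, and each gate's plasmids were PCR-amplified and Illumina-sequenced.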

Sequence	protein stability index
STVAKFLARVIKEKFDE [IRR1]	2.33 ± 0.082
STYLPKLISAFDDLEVE [RRP42]	2.75 ± 0.042
SVILSVISMFVLPIFTT [YML031W/NDC1]	1.5 ± 0.059
SVINVSAQRDRRYRKRV [RPS17A]	2.06 ± 0.063
SVISGNLSLYEATAASH [CSN12]	2.87 ± 0.068
SVKGKVVIDAFRLIDTG [RPN11]	2.38 ± 0.099
SVLDEQEQYQTNTFEGS [SNU114]	3.22 ± 0.08
SVPEGTIVSNVEEKPGD [RPL2A]	3.02 ± 0.082
SVSFKVFLLLQAYFSRL [BRR2]	1.47 ± 0.063
SVSGSPRPSYSSRPNVN [YMR129W/POM152]	2.72 ± 0.085
SVVAKQLLNGQKIVVVR [RPL16A]	1.36 ± 0.053
SVVRVLVHTQIRKTPLA [RPL3]	1.35 ± 0.096
SWVQPRIISGDQITKMK [RPN9]	3.27 ± 0.12
SYAGKQVVGPFHTSFSA [SMC4]	3.33 ± 0.11
SYDCTGVNELAPIPKGR [POP1]	2.79 ± 0.057
SYKMNSSAADITMESVH [PRP8]	3.19 ± 0.08
SYLSNSLDTSASTINGA [YML103C/NUP188]	1.78 ± 0.063
SYNLEYIESKFCPGEIV [YMR129W/POM152]	3.21 ± 0.19
SYNNTGISDDENDEEDI [RRP4]	3.27 ± 0.12
SYVEPVLVASAKGLQTV [RPL31A]	2.33 ± 0.08
TAAEKKERLTKEAAAVA [RPL8A]	2.79 ± 0.16
TAAFTAMICEAKGLIEN [YJR042W/NUP85]	2.86 ± 0.06
TADAEILINTARIHAQN [PRE9]	2.85 ± 0.073
TADKIRIHAKNFEAALF [GAL11]	2.05 ± 0.065
TAEERVGRRAANLRVLN [RPL15A]	3.28 ± 0.14
TAETNNKVHETSSKSSS [YDL088C/ASM4]	2.96 ± 0.045
TAFQTQRTAQDRVQQDS [YML031W/NDC1]	2.62 ± 0.075

Sequence	protein stability index
TAKKTNRSAYDSKNTPN [YDL088C/ASM4]	2.78 ± 0.065
TALEHKVVNGNSADAAY [FAS2]	3.09 ± 0.088
TANDQYSSILGNSFNKS [YCG1]	3.18 ± 0.067
TANDRQINNVHLIPNEI [RPN4]	3.02 ± 0.062
TANTGTIGKRRTTTNTT [TAF14]	3.29 ± 0.046
TCRKHTQHKVTQYKAGK [RPL42A]	2.85 ± 0.12
TDEALFENVKLLAEYDN [MED4]	3.17 ± 0.1
TDENTPSADGADKKDDS [ITC1]	3.11 ± 0.062
TDLGKDIPFFPSSEKPN [SSN2]	2.9 ± 0.077
TDPKELYNNAHVYARDL [RPC40]	2.94 ± 0.11
TDSDFAKYHAKLNKKLQ [SRP68]	3.12 ± 0.055
TDVKLTLPQPRLNKLNS [SMD1]	2.79 ± 0.059
TEDGWIYHGNHDVGELF [PRE2]	1.84 ± 0.049
TEDIRIRAQNFKSALAN [RRP6]	2.41 ± 0.091
TEGHKGHEELKRRIEEE [ISW2]	3.42 ± 0.09
TEHVRQNAKLLANLIRD [RRP6]	1.93 ± 0.08
TEIENYLLENNQVGTDE [YDL116W/NUP84]	2.9 ± 0.082
TEIISTLSNGLIASHYG [BRR2]	2.79 ± 0.096
TEISGLKNVNKRAFENF [SMC3]	3.09 ± 0.097
TEKEPVPAVVDDPLENM [SNF6]	3.12 ± 0.08
TELTHHLLPRNEWIKAQ [QCR7]	2.16 ± 0.073
TESPLKTVDSSIQPIES [SSN2]	2.93 ± 0.053
TETFEKPQRTNTLRMKH [RPB2]	3.21 ± 0.14
TEVSRKSMKYVKKILPL [ECM29]	1.5 ± 0.24
TEYRGTLVSTDNYFNLQ [SMX3]	2.65 ± 0.046
TFGINLIYVNPFMLQWG [FAS1]	2.35 ± 0.08
TFGKKADVTSNIDSSAQ [YOR098C/NUP1]	2.23 ± 0.045

Sequence	protein stability index
TFIKDCLFTKCLEDPEK [POP4]	1.78 ± 0.091
TFIYFAYFLIIVPVIST [COB]	1.3 ± 0.046
TFLPPLLLKLASPHASV [ECM29]	1.8 ± 0.04
TGAGVSTSLGIPDFRSS [SIR2]	2.51 ± 0.082
TGAPPYYYNTKIYKLEN [YMR129W/POM152]	2.72 ± 0.064
TGDADEPELRVLSTEEI [RPO21]	3.25 ± 0.099
TGLKLYSRITLIIDDPS [RPP1]	2.8 ± 0.077
TGNGTTTTSNTSGTNIA [YOR098C/NUP1]	2.69 ± 0.047
TGNTTSKSAFSFGTANT [YOR098C/NUP1]	2.72 ± 0.058
TGQNFLTSNISSLVRSC [REC8]	2.78 ± 0.08
TGRMRYLKHVSRRFKNG [RPL37A]	3.25 ± 0.042
TGTARLNSMPNNVNEYS [YJL039C/NUP192]	2.74 ± 0.085
THKVTDIYSHEYKVITS [YMR129W/POM152]	1.97 ± 0.082
THQSPPPPPQQSQPIAN [SNF5]	3.07 ± 0.043
THSYNFMRQNLEWNMAN [RPC82]	1.75 ± 0.057
TIDWVEAGLQLCRQGHN [PRP8]	2.77 ± 0.1
TIETFNEAALVVNITHH [RPB5]	1.92 ± 0.061
TIFKSGEIDFIKNIGKS [YML103C/NUP188]	2.37 ± 0.061
TIKISTNDDSIKNLTVQ [RGR1]	3.05 ± 0.1
TISSLFVQLCEMGYLIQ [RPC82]	1.69 ± 0.078
TITDLIEQGIPKHSYLS [SIR4]	3.16 ± 0.06
TIVNDSNYDWLFQLLNA [RPN9]	2.58 ± 0.077
TKCSTVVKASELDQFWQ [SRP14]	2.14 ± 0.047
TKEKVNGASVPINLHPS [RPL26A]	2.73 ± 0.078
TKENGDFTLPEDFAPLL [PRP8]	2.78 ± 0.18
TKESQPTIEEDLTRVYK [FAS2]	3.32 ± 0.094
TKFQTTDRESYPRLQDP [YCS4]	3.15 ± 0.055

Sequence	protein stability index
TKIGAKRIHSVRTRGGN [RPS8A]	3.05 ± 0.11
TKIPQIGDKFASRHGQK [RPB2]	2.3 ± 0.07
TKNGTPNPNNMKTVQSP [GAL11]	2.92 ± 0.081
TKNLSILTSKVNAIKNE [DSN1]	2.13 ± 0.056
TKPGVYYVPYSKLMPVL [RPC82]	1.59 ± 0.049
TKSHNTVQSWLCDLFVN [NUT1]	1.46 ± 0.044
TKSMVKIAEQYSKRIEE [RPN11]	1.94 ± 0.052
TLAEVKAAGLTAAYART [RPL13A]	1.89 ± 0.097
TLDKPNAEATKEEFSSA [CSE2]	3.12 ± 0.1
TLDRNTAAETFKLFNKY [RPL8A]	3.19 ± 0.068
TLELESFLEGSKALNSI [RGR1]	2.16 ± 0.067
TLIKKKQDEKKSSELEL [SMC2]	3.37 ± 0.071
TLIVNTDVEKSDPAAKK [SRP21]	3.13 ± 0.3
TLKDYQIKGLQWMVSLF [SNF2]	2.54 ± 0.11
TLKLRARQRGKLKKSEE [SRP68]	3.27 ± 0.11
TLLARAVAHHTDCKFIR [RPT6]	3.03 ± 0.076
TLLESNLCKIIEPFECV [RPN6]	2.81 ± 0.12
TLLNFVSNNVLRRLEIL [ECM29]	1.92 ± 0.29
TLQDIGFYQIKKIVDSK [YMR129W/POM152]	2.68 ± 0.1
TLTELKDALSNSILSVR [SRB2]	3.38 ± 0.082
TMEVKSFPILDQCVGQV [YMR129W/POM152]	3.08 ± 0.11
TNAKLPNVDLVTALEVL [RGR1]	2.28 ± 0.052
TNDRLNREAATKEVESN [DIS3]	2.58 ± 0.096
TNRHTLALETVLIKMVK [SIR3]	2.86 ± 0.072
